Laboratory results: PMC7586746, “A putative nuclear copper chaperone promotes plant immunity in Arabidopsis” (Journal of Experimental Botany, 2020)
Each block holds one binder with its values, some of them ahead of it.

Experiments:
GST–NPR1 = biological target: T1, GST–NPR1 (UniProt P93002 1-593); experiment: pull-down; GST pull-down in vitro of His-CCP and His-TGA2 added together, in the presence of Cu^2+ (Supplementary Fig. S13); details: both partners purified
T1 construct: NPR1 (non-expressor of pathogenesis-related gene 1), cloned into pGEX-4T-1; source: E. coli BL21, purified
T1 sequence (looked up): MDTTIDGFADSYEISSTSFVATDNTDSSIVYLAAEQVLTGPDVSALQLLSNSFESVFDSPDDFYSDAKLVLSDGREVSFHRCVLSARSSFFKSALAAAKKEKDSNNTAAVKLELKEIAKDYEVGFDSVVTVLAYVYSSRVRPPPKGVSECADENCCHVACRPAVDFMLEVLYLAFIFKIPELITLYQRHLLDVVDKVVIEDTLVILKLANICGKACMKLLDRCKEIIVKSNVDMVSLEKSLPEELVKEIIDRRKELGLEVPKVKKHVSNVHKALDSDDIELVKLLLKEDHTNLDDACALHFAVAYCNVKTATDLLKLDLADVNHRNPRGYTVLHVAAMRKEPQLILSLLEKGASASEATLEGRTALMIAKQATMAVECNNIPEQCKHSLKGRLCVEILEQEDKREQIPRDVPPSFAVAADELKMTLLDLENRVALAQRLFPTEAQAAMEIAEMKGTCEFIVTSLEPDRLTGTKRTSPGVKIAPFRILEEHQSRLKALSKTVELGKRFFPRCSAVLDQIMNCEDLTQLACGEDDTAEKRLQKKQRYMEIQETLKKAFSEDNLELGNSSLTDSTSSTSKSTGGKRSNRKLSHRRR

TGA2;NPR1 = TGA2;NPR1 (Arabidopsis thaliana?;Arabidopsis …, UniProt P43273;P93002 1-330;1-593, |); experiment: EMSA; with NPR1; substantially more probe bound than TGA2 alone; LightShift EMSA kit: 500 ng GST-tagged protein, 4 fmol biotin-LS7 probe, 20 ul with 1 ul dI-dC, 1 ul 50% glycerol, kit 10x binding buffer, 20 min, 25 C; 6% native gel; salt and pH not stated; details: protein: recombinant;recombinant; tags: GST (N-terminal);GST (N-terminal); blunt
NPR1 = NPR1 (UniProt P93002 1-593); experiment: EMSA; NPR1 alone; LightShift EMSA kit: 500 ng GST-tagged protein, 4 fmol biotin-LS7 probe, 20 ul with 1 ul dI-dC, 1 ul 50% glycerol, kit 10x binding buffer, 20 min, 25 C; 6% native gel; salt and pH not stated; details: protein: recombinant; tags: GST (N-terminal); blunt

binding result (GST–NPR1): binds
B1: His-TGA2 (natural protein, UniProt P43273 1-330, looked up)
chain: MADTSPRTDVSTDDDTDHPDLGSEGALVNTAASDSSDRSKGKMDQKTLRRLAQNREAARKSRLRKKAYVQQLENSRLKLTQLEQELQRARQQGVFISGTGDQAHSTGGNGALAFDAEHSRWLEEKNKQMNELRSALNAHAGDSELRIIVDGVMAHYEELFRIKSNAAKNDVFHLLSGMWKTPAERCFLWLGGFRSSELLKLLANQLEPMTERQLMGINNLQQTSQQAEDALSQGMESLQQSLADTLSSGTLGSSSSGNVASYMGQMAMAMGKLGTLEGFIRQADNLRLQTLQQMIRVLTTRQSARALLAIHDYFSRLRALSSLWLARPRE
notes: transcription factor TGA2

B2: LS7 probe (PR1 promoter) (dsDNA)
DNA 1: TATTTTACTTACGTCATAGATGTGGCGGCA
DNA 2: TGCCGCCACATCTATGACGTAAGTAAAATA
binding result (TGA2;NPR1): binds
binding result (NPR1): no binding
